# B1: OR4K15 (parent)
# chain: GUUAACGGUCAUAGGCCAUGGAAACUAGGAGCACCAUUUCGCUGCCAGUGAAGAAAUGAACAAAGAAAAUCUGGGCCAGGCAGGCAUCAAAAGAAAUAGUCUUGCGCUCAACCAGAAAGUCUGUAAUCAUUUUAAGGGUA
# Variants of: B1
# Assay: self-cleavage, relative activity (ratio to wild type); higher = more cleavage; in vitro, sequencing; the parent is a self-cleaving ribozyme
row,Variant,self-cleavage
1,A59C U102C,1.51
2,U57A A140G,1.3
3,A59G A98G,0.67
4,A55U U57C,1.76
5,A59G C77U,1.7
6,G58A G106A,0.01
7,A59G A86C,0.64
8,A59G A86U,1.71
9,A59G A86G,0.5
10,A55U A90G,1.36
11,A56G U108A,0.02
12,A55G U72G,0.25
13,A55G A116G,0.63
14,U57C G137C,0.73
15,U57C G137U,2.18
16,A56G A135U,0.62
17,A56G A135G,1.61
18,U57G U120C,1.11
19,A56U A69U,0.67
20,G58A U103C,1.09
21,A55U A118G,1.43
22,A55G G65A,1.07
23,U57G A135G,1.74
24,A55G U120A,1.67

row,Variant,self-cleavage
1,A56G A62C,1.26
2,A56G A62G,1.92
3,A56U U133C,2.27
4,U57A U70A,0.62
5,U57A U122C,0.75
6,U57C U108A,0.02
7,A55G G74A,0.31
8,A56G A69G,1.08
9,G58A A126G,0.63
10,U57C C101A,0.1
11,A59G A64G,1.37
12,A59G A64U,0.74
13,A55G A86U,1.26
14,A55G A86C,1.66
15,U57A A89U,0.95
16,A56G U87C,0.74
17,A56G U87G,0.32
18,A55G U102C,1.75
19,A56U A64G,2.32
20,A56G U131A,0.6
21,A56G U131C,1.47
22,A59G A90G,0.78
23,U57C A78G,0.23
24,U57C A78U,0.26

row,Variant,self-cleavage
1,U57C U100A,0.4
2,U57A U97C,1.78
3,A59G A62C,0.43
4,G58U A98G,0.34
5,U57C U97C,1.09
6,A56G A96G,1.68
7,U57C A95G,1.76
8,U57C A95U,1.28
9,A59G A117G,1.71
10,U57G G137C,1.71
11,U57A A114U,0.03
12,U57A A114G,0.38
13,A56G C105U,0.12
14,G58A A140G,1.85
15,A56G A64G,1.44
16,A55G A98U,1.21
17,A59G A89G,1.09
18,U57A A95G,2.11
19,G58U U87C,0.38
20,A55G A96G,0.83
21,A59C U103C,0.57
22,A59G A114C,0.03
23,A56G C113U,0.08
24,A55G A92G,0.67

row,Variant,self-cleavage
1,A55U U103C,0.91
2,A55G U127C,0.82
3,A55U A91G,1.73
4,A56G U57C,1.27
5,U57C A66G,0.31
6,U57C C105G,0.01
7,A59G A69U,1.7
8,A59G A69C,0.6
9,U57G A129G,1.15
10,A56C A68G,1.59
11,U57C U127C,0.66
12,U57C U127A,1.19
13,U57A A125G,0.52
14,A55U A111C,0.06
15,U57G,1.34
16,U57A,0.69
17,U57C,0.86
18,A59G A135G,0.84
19,A56C A125C,0.7
20,A56U A60G,0.43
21,A59G A95G,1.68
22,A59G C113U,0.03
23,U57C A62U,2.11
24,U57A A64G,1.32

row,Variant,self-cleavage
1,U57C U103G,0.02
2,U57C U103A,0.15
3,U57A A62U,2.46
4,A59G A129U,0.86
5,A59G A129C,0.55
6,A56G U102C,1.67
7,A56G U102G,0.89
8,U57C A125G,0.29
9,A56C A78U,0.35
10,G58A U133C,1.94
11,A55G A110G,0.12
12,A55U U130C,1.13
13,U57G A117G,2.08
14,A56G A68G,1.51
15,A56G A68U,1.86
16,A55U A96G,1.61
17,U57C U87A,0.98
18,A55G G58A,1.63
19,U57A U130C,0.81
20,U57A U87C,0.92
21,G58U U100C,2.08
22,G58U U127C,1.33
23,U57A A110U,1
24,U57A A110C,0.17

row,Variant,self-cleavage
1,A56G U124A,0.78
2,A56G U70C,0.95
3,A56G U70A,1.49
4,A55G A91U,2.07
5,A59G A78U,0.28
6,U57C U130C,0.78
7,A56G C109A,0.34
8,A55U C109U,0.31
9,A56G A111U,0
10,A55G U139A,1.49
11,A55G U139C,1.72
12,A55G C107A,0.02
13,A55G C107U,0.05
14,G58A U139C,0.57
15,A59G C112G,0.03
16,A55G G106A,0.01
17,A55G A111U,0.21
18,U57C A89G,0.75
19,G58U A90G,1.25
20,A55U A116G,0.88
21,A55G A95G,1.92
22,G58A A116G,0.29
23,U57G A140U,1.23
24,G58A A118G,0.52

row,Variant,self-cleavage
1,U57C A94U,1.23
2,A55G A78U,0.18
3,A59C U132C,1.64
4,A55G C76U,0.15
5,A56G U120A,1.19
6,A55G A135U,0.94
7,A56G U122A,0.63
8,A55U A59G,0.75
9,U57C A86G,0.94
10,A59G A91G,0.8
11,A55G U108C,0.01
12,A56G A89G,1.5
13,U57C A135U,1.02
14,A55U A94U,0.43
15,A55U A94G,1.59
16,A55U A82U,0.28
17,G58U A67G,0.88
18,G58U A67U,2.46
19,A55U A117U,0.72
20,A55U A117G,1.77
21,A56G G75C,0.19
22,A55G G136A,1.36
23,A55G U87A,1.33
24,U57C A126G,0.4

row,Variant,self-cleavage
1,G58U A89U,1.46
2,A56G A91G,0.51
3,A56G A91U,1.21
4,U57G A91G,0.52
5,A56C A129G,1.35
6,A56G G83A,1.67
7,U57G C81U,0.29
8,U57A A96C,0.99
9,A55G A82C,0.16
10,A55G U122G,2.18
11,A55G U122A,1.39
12,A55G U122C,1.2
13,A55U A110G,0.23
14,A59G A68U,1.91
15,A59C U127C,1.18
16,G58U A110G,0.11
17,A56U A63G,2.61
18,A56U U103A,0.25
19,A59G C101U,0.26
20,U57C U139C,1.94
21,U57C A90U,1.51
22,U57C A90G,0.97
23,U57C A129G,1.43
24,U57C A129U,1.47

row,Variant,self-cleavage
1,A56G C88U,1.72
2,U57C U72A,0.18
3,U57C U72C,0.04
4,A56G A82G,0.56
5,A56G A82C,0.15
6,A56G A82U,0.23
7,A56G A66U,0.92
8,A56U U87C,1.05
9,U57A A98U,1.47
10,U57G A90G,0.88
11,U57C U131C,0.94
12,A56G A134G,1.2
13,A55U G137A,1.23
14,A55G C101U,0.38
15,A56G U132C,0.6
16,A56U A91G,2.02
17,U57C U133C,1.02
18,U57C A69G,0.75
19,U57C A69U,1.63
20,A59G G79A,0.28
21,A59C,1.66
22,A59G,1.06
23,A59G A118C,0.9
24,U57C A68U,2.04

row,Variant,self-cleavage
1,U57C A140U,1.78
2,U57A U102G,0.16
3,A56G A98G,0.57
4,A56G A98U,2.25
5,A55G A114C,0.05
6,A55G A114U,0.02
7,A59G A66U,1.75
8,A59G A66G,1.15
9,U57A A63U,1.38
10,A55G U100C,1.93
11,A55G U100A,0.48
12,U57G U100C,2.26
13,A56U A66U,0.42
14,G58U G106A,0.01
15,A55G G123U,2.01
16,A55G G123A,1.61
17,U57A A117G,1.69
18,A59G U87C,1.19
19,A59G U87A,1.11
20,A56G U127C,0.96
21,U57C A82U,0.21
22,U57C A82C,0.23
23,A56G A110U,1.05
24,U57G A110G,0.17

row,Variant,self-cleavage
1,G58U U108C,0.02
2,A56U A62U,1.15
3,A55G G84A,2.46
4,U57C A63G,1.05
5,A55G G137A,1.82
6,A59C U124A,0.73
7,A59G A126U,1.27
8,A56G A117U,1.27
9,U57G A94G,1.41
10,A59C C113A,0.02
11,U57A U139C,0.25
12,A56U U57C,1.47
13,U57C A110G,0.1
14,A56G U72C,0.28
15,A56G U72A,0.26
16,U57C A91G,0.84
17,A56G A63G,0.85
18,U57C A67G,0.83
19,U57A G138A,1.33
20,A56C A62G,0.6
21,A56G A60G,0.63
22,A59G U70A,0.56
23,A59G U70C,0.84
24,A56G C76U,0.14

row,Variant,self-cleavage
1,A56G A126U,0.95
2,A56C A82G,0.56
3,U57C A116U,0.33
4,U57C A116G,0.33
5,U57C G106U,0.03
6,A56U A68G,0.34
7,A56G A116U,0.56
8,A56G A118C,0.64
9,A56U A96G,1.62
10,U57C U70A,0.68
11,A56G A94G,1.29
12,U57A U103C,0.22
13,A55G A129C,0.72
14,A55G A129G,0.99
15,A56G A90C,0.21
16,A56G A90U,1.83
17,A59G U72A,0.05
18,U57A A129G,0.9
19,U57C A117G,0.84
20,U57A A111G,0.02
21,U57A A60G,1.19
22,A55U U127A,2.63
23,A55U U127C,0.93
24,A55G A140U,0.81

row,Variant,self-cleavage
1,A56G U130C,1.63
2,A55U A68G,1.44
3,A59G G106A,0.02
4,A59G C109G,0.03
5,A56U U122A,1.31
6,A55U G58U,1.98
7,U57C G74U,0.39
8,U57C G74A,0.28
9,U57C A96G,1.17
10,A55G A118G,1.23
11,A56G G136A,1.69
12,A55G A126C,0.18
13,A55G U133C,1.83
14,A59G A116U,0.32
15,A59G A116G,0.77
16,A55G U130C,0.96
17,A55G C88U,1.02
18,A56C A117G,1.17
19,A55G A94G,1.39
20,A56G C101A,0.12
21,A59G A134G,0.34
22,A59G A134U,1.94
23,A59G G115U,0.13
24,A59G A110G,0.17

row,Variant,self-cleavage
1,A59G A110C,0.44
2,A59G A110U,0.97
3,A55G G99A,0.16
4,U57A U124C,0.68
5,A56G A140G,1.78
6,A59G A92U,1.08
7,G58A A62G,1.01
8,A56C A66G,0.72
9,A56G G99C,0.2
10,A59G C105U,0.17
11,A56U U132C,1.11
12,U57C A114G,0.12
13,A55G G138A,1.54
14,A56G U97C,0.4
15,A59G C71U,0.22
16,A55G C113U,0.03
17,A55U A56G,1.38
18,A55U A56U,0.55
19,A59G A111C,0.03
20,A59G A111G,0.02
21,A55U U100C,2.69
22,A55U U100A,0.82
